Measured values taken from patent US7635583B2, “Protein crystal comprising the processivity clamp factor of DNA polymerase and a ligand, and its uses” (Centre National de la Recherche Scientifique, priority 2003, dated 2009).

What was measured:
[1] = target: T1, Pol IV DNA polymerase (Escherichia coli, UniProt Q47155); assay: intrinsic (β-independent) activity of Pol IV, primer extension on β free primer/template; type: biochemical; conditions: peptide 1, 10, 25 μM, Pol IV 1.5 nM
T1 sequence (Q47155 1-351): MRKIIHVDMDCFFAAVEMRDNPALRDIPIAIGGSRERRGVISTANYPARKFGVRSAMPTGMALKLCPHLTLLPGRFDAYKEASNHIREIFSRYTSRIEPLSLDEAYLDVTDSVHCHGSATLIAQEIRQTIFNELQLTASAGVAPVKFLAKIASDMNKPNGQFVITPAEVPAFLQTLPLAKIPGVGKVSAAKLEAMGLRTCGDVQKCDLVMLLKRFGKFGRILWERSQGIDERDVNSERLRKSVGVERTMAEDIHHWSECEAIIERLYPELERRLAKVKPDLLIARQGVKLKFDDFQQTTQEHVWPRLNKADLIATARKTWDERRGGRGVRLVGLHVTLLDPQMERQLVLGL
Procedure: FIG. 3A represents the migration pattern of an electrophoresis gel. β free (lanes 1-4 and 9-12) or β loaded (lanes 5-8 and 13-16) labelled primer/template hybrids are incubated with increasing amounts of control peptide (CLIP) (lanes 1-8) or P16 peptide (lanes 9-16). Concentrations of peptides are as follows: 0 μM, lanes 1, 5, 9 and 13; 1 μM, lanes 2, 6, 10 and 14; 10 μM, lanes 3, 7, 11 and 15; 25 μM, lanes 4, 8, 12 and 16. This mixture is then submitted to the enzymatic activity of Pol IV (1.5 nM) in the presence of each four dNTPs for 1 minute at room temperature. Beside the overall increase in DNA synthesis activity, the β-dependent activity of the polymerase is characterised by the apparition of synthesis products longer than 12 nucleotides (β dependent synthesis), β independent synthesis is characterised by products shorter than 12 nucleotides. […] FIG. 3B represents the quantitative analysis of the relative amounts of each β-independent (incorporation of 1 up to 12 nucleotides) and β-dependent (12 and more nucleotides incorporation) activities observed in lanes 5-8 and 13-16. Black and white rectangles represent the ratio of β-dependent to β-independent polymerase activities (vertical axis) in the presence of specified amounts of CLIP and P16 peptides (horizontal axis), respectively. […]

[2] = target: β clamp-Pol IV DNA polymerase interaction (Escherichia coli, UniProt P0A988); conditions: Pol IV 1.5 nM; for effect on β-dependent Pol IV activity: peptide 1, 10, 25 μM
Procedure: FIG. 3A represents the migration pattern of an electrophoresis gel. β free (lanes 1-4 and 9-12) or β loaded (lanes 5-8 and 13-16) labelled primer/template hybrids are incubated with increasing amounts of control peptide (CLIP) (lanes 1-8) or P16 peptide (lanes 9-16). Concentrations of peptides are as follows: 0 μM, lanes 1, 5, 9 and 13; 1 μM, lanes 2, 6, 10 and 14; 10 μM, lanes 3, 7, 11 and 15; 25 μM, lanes 4, 8, 12 and 16. This mixture is then submitted to the enzymatic activity of Pol IV (1.5 nM) in the presence of each four dNTPs for 1 minute at room temperature. Beside the overall increase in DNA synthesis activity, the β-dependent activity of the polymerase is characterised by the apparition of synthesis products longer than 12 nucleotides (β dependent synthesis), β independent synthesis is characterised by products shorter than 12 nucleotides. […] FIG. 3B represents the quantitative analysis of the relative amounts of each β-independent (incorporation of 1 up to 12 nucleotides) and β-dependent (12 and more nucleotides incorporation) activities observed in lanes 5-8 and 13-16. Black and white rectangles represent the ratio of β-dependent to β-independent polymerase activities (vertical axis) in the presence of specified amounts of CLIP and P16 peptides (horizontal axis), respectively. Decrease in this ratio value actually indicates a specific inhibition of the β-dependent polymerase activity.
(§1) Briefly, P16 peptide and a control peptide (CLIP) were diluted in 20 mM NaHCO3 at concentrations of 250, 100 and 10 pmol/μl. 5′ end radiolabelling, purification and annealing of synthetic primers were performed as previously described (Wagner et al., 1999).
All replication experiments (10 μl final volume) were carried out in buffer E (40 mM HEPES pH 7.5, 80 mM potassium glutamate, 160 μg/ml BSA, 16% glycerol, 0.016% NP40, 8 mM DTT). The 30/90 nucleotide hybrid was first incubated with single strand binding proteins (SSB; Sigma; 90 nM final concentration) in the presence of ATP (200 μM) and MgCl2 (7.5 mM) at 37° C. for 10 min. […]

[3] = target: β clamp-α subunit of DNA Polymerase III interaction (Escherichia coli, UniProt P0A988); conditions: peptide 1, 10, 25 μM; α subunit 6 nM
Procedure: as §1
All replication experiments (10 μl final volume) were carried out in buffer E (40 mM HEPES pH 7.5, 80 mM potassium glutamate, 160 μg/ml BSA, 16% glycerol, 0.016% NP40, 8 mM DTT). The 30/90 nucleotide hybrid was first incubated with single strand binding proteins (SSB; Sigma; 90 nM final concentration) in the presence of ATP (200 μM) and MgCl2 (7.5 mM) at 37° C. for 10 min. When specified, the γ complex (1 nM final concentration) (gift from Dr. C. S. McHenry, Denver, USA), and the β clamp (5 nM as dimer final concentration) were added at that stage, and incubation was carried out at 37° C. for 10 min. Then, 7 μl of the mixture was added to 1 μl of either 20 mM NaHCO3 or 1 μl of peptide solution (1, 10 or 25 μM final concentration), incubated 20 min. at room temperature and farther 2 hours at 4° C.

Sequence of β clamp-Pol IV DNA polymerase interaction (P0A988 whole entry): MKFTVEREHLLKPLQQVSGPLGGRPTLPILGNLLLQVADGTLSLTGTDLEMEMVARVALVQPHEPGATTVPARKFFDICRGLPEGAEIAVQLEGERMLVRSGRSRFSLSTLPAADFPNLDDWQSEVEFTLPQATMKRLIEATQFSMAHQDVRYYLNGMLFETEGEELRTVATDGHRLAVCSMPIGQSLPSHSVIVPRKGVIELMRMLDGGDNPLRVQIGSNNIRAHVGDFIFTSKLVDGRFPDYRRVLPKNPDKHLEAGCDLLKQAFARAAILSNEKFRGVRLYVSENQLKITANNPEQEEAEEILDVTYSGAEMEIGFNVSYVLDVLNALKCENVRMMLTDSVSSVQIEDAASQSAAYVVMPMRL
Sequence of β clamp-α subunit of DNA Polymerase III interaction (P0A988 whole entry): as above

Sequence: RPVKVTPNGAEDESAEAFPLEF (Control peptide) [CLIP, reference compound]
- effect on intrinsic activity of Pol IV (distributive incorporation of one to up to 12 nucleotides) [1]: neither P16 nor CLIP peptides do affect
- effect on β-dependent Pol IV activity [2]: no effect

Sequence: VTLLDPQMERQLVLGL (listed as Escherichia coli) [P16]
- effect on α subunit β-dependent activity [3]: dose dependent inhibition
- effect on intrinsic activity of Pol IV (distributive incorporation of one to up to 12 nucleotides) [1]: neither P16 nor CLIP peptides do affect
- decrease of β-dependent Pol IV activity (factor) ([2]; highest P16 concentration tested, 25 μM, β clamp 5 nM): around 30
- effect on β-dependent Pol IV activity [2]: inhibits the β-dependent activity of Pol IV
